Reference: patent publication US20130095097A1 (EMERGENT PRODUCT DEVELOPMENT SEATTLE, published 2013)

Columns and labels:
CD28 on Jurkat T cells = target: T1, CD28 on Jurkat T cells (UniProt P10747 19-220, limits assumed); assay: flow cytometry on Jurkat cells
T1 construct: whole, on cells; also called Jurkat cells; Jurkat T cell lines

CD28 mIg [1] = target: T2, CD28 mIg (UniProt P10747 19-152); assay: SPR, CD28-mIgG immobilized, kinetic KD, bivalent analyte model, initial binding at the first site only
T2 construct: Coated on ELISA plates and amine-coupled to a CM5 chip; also called CD28-mIgG; immobilized CD28
Protocol: (§1) Surface plasmon resonance (SPR) measurements were performed on a Biacore T100 SPR using HBS-P+ (GE Healthcare) as a running buffer. CD28-mIgG (25 μg/mL in 10 mM sodium acetate, pH 4.0) was directly immobilized onto a CM5 chip using standard amine coupling chemistry (Biacore Amine Coupling Kit, GE Healthcare), with final immobilization levels between 800 and 1900 Ru (resonance units). 2E12 binding domain constructs were injected at 25° C. or 37° C. for 150 seconds at a flow rate of 30 μl/min in a series of concentrations from 10 nM to 1 μM. Dissociation was monitored for 1200 seconds, and the surface was regenerated by injecting 50 mM NaOH for 60 seconds. Binding interactions with the surface were stable through at least 60 regeneration cycles. Data were analyzed using BiaEvaluation for the T100 software (version 2.0, GE Healthcare).
(§2) Surface plasmon resonance was used to measure binding of immobilized CD28 by 2E12 binding domain constructs. […] Binding kinetics of the bivalent 2E12 constructs (e.g., 2E12 mAb, FIGS. 27A-27B) to immobilized CD28 could not be fit to a 1:1 Langmuir binding model, but could be fit with high accuracy to a bivalent analyte binding model (Table 5). Equilibrium dissociation constants (1(D) could be calculated with high accuracy for each construct by fitting the observed response at saturation to a steady-state equilibrium model (Table 5).

CD28 mIg [2] = target: T2, CD28 mIg; assay: SPR, CD28-mIgG immobilized, bivalent analyte model, second on rate (avidity); set-up: unit not given here
Protocol: as §1, §2

CD28 mIg [3] = target: T2, CD28 mIg; assay: SPR, CD28-mIgG immobilized, bivalent analyte model, first off rate kd (I)
Protocol: as §1, §2

CD28 mIg [4] = target: T2, CD28 mIg; assay: SPR, CD28-mIgG immobilized, bivalent analyte model, first on rate ka (I)
Protocol: as §1, §2

CD28 mIg [5] = target: T2, CD28 mIg; assay: SPR, CD28-mIgG immobilized, bivalent analyte model, second off rate (avidity)
Protocol: as §1, §2

CD28 mIg [6] = target: T2, CD28 mIg; assay: SPR, CD28-mIgG immobilized; reference 2E12 SMIP (M0039)
Protocol: as §1, §2

CD28 mIg [7] = target: T2, CD28 mIg; assay: SPR, CD28-mIgG immobilized, steady-state equilibrium KD
Protocol: as §1, §2

CD28 mIg [8] = target: T3, CD28 mIg (UniProt P10747 19-152); assay: SPR, CD28-mIgG immobilized, kinetic KD (kd (I)/ka (I))
Protocol: as §1, §2

CD28 mIg [9] = target: T3, CD28 mIg; assay: SPR, CD28-mIgG immobilized, steady-state equilibrium KD
Protocol: as §1, §2

CD28 mIg [10] = target: T3, CD28 mIg; assay: SPR, CD28-mIgG immobilized, 1:1 Langmuir model, ka (I)
Protocol: as §1, §2

CD28 mIg [11] = target: T3, CD28 mIg; assay: SPR, CD28-mIgG immobilized, 1:1 Langmuir model, kd (I)
Protocol: as §1, §2

Binder | binding result (CD28 on Jurkat T cells) | Kd (CD28 mIg [1]) [nM] | ka (II) (CD28 mIg [2]) | koff (CD28 mIg [3]) [s⁻¹] | kon (CD28 mIg [4]) [M⁻¹ s⁻¹] | kd (II) (CD28 mIg [5]) [s⁻¹] | fold affinity difference against the 2E12 SMIP (CD28 mIg [6]) [fold] | Kd (CD28 mIg [7]) [nM] | Kd (CD28 mIg [8]) [nM] | Kd (CD28 mIg [9]) [nM] | kon (CD28 mIg [10]) [M⁻¹ s⁻¹] | koff (CD28 mIg [11]) [s⁻¹]
Interceptor X0128 (X0120 + X0121) (other) chain 1: QVQLKESGPGSVAPSQSLSITCTVSGFSLTGYGVNWVRQPPGKGLEWLGMIWGDGSTDYNSALKSRLSITKDNSKSQVFLKMNSLQTDDTARYYCARDGYSNFHYYVMDYWGQGTSVTVSSGGGGSGGGGSGGGGSGGGGSDIVLTQSPASLAVSLGQRATISCRASESVEYYVTSLMQWYQQKPGQPPKLLISAASNVESGVPARFSGSGSGTDFSLNIHPVEEDDIAMYFCQQSRKVPWTFGGGTKLEIKSSSASTKGPSVFPLAPSSKSTSGGTAALGCLVKDYFPEPVTVSWNSGALTSGVHTFPAVLQSSGLYSLSSVVTVPSSSLGTQTYICNVNHKPSNTKVDKKVRTEPKSSDKTHTCPPCPSGAPELLGGPSVFLFPPKPKDTLMISRTPEVTCVVVDVSHEDPEVKFNWYVDGVEVHNAKTKPREEQYNSTYRVVSVLTVLHQDWLNGKEYKCKVSNKALPAPIEKTISKAKGQPREPQVYTLPPSRDELTKNQVSLTCLVKGFYPSDIAVEWESNGQPENNYKTTPPVLDSDGSFFLYSKLTVDKSRWQQGNVFSCSVMHEALHNHYTQKSLSLSPGKSRASTKGPSVFPLAPSSKSTSGGTAALGCLVKDYFPEPVTVSWNSGALTSGVHTFPAVLQSSGLYSLSSVVTVPSSSLGTQTYICNVNHKPSNTKVDKKV chain 2: TVAAPSVFIFPPSDEQLKSGTASVVCLLNNFYPREAKVQWKVDNALQSGNSQESVTEQDSKDSTYSLSSTLTLSKADYEKHKVYACEVTHQGLSSPVTKSFNRGERTEPKSSDKTHTCPPCPSGAPELLGGPSVFLFPPKPKDTLMISRTPEVTCVVVDVSHEDPEVKFNWYVDGVEVHNAKTKPREEQYNSTYRVVSVLTVLHQDWLNGKEYKCKVSNKALPAPIEKTISKAKGQPREPQVYTLPPSRDELTKNQVSLTCLVKGFYPSDIAVEWESNGQPENNYKTTPPVLDSDGSFFLYSKLTVDKSRWQQGNVFSCSVMHEALHNHYTQKSLSLSPGKSRTVAAPSVFIFPPSDEQLKSGTASVVCLLNNFYPREAKVQWKVDNALQSGNSQESVTEQDSKDSTYSLSSTLTLSKADYEKHKVYACEVTHQGLSSPVTKSFNRGE | binds | – | – | – | – | – | – | – | – | – | – | –
2E12 monoclonal antibody (mAb) (antibody, V domains shown, also called 2E12 mAb; 2E12 Mab) VH: QVQLKESGPGSVAPSQSLSITCTVSGFSLTGYGVNWVRQPPGKGLEWLGMIWGDGSTDYNSALKSRLSITKDNSKSQVFLKMNSLQTDDTARYYCARDGYSNFHYYVMDYWGQGTSVTVSS VL: DIVLTQSPASLAVSLGQRATISCRASESVEYYVTSLMQWYQQKPGQPPKLLISAASNVESGVPARFSGSGSGTDFSLNIHPVEEDDIAMYFCQQSRKVPWTFGGGTKLEIK | – | 6 | 0.00367 | 0.00104 | 176000 | 0.0127 | 2 | 11.4 | – | – | – | –
Interceptor X0132 (X0130 + X0131) (other, also called Heterodimer 2 (X0132)) chain 1: QVQLKESGPGSVAPSQSLSITCTVSGFSLTGYGVNWVRQPPGKGLEWLGMIWGDGSTDYNSALKSRLSITKDNSKSQVFLKMNSLQTDDTARYYCARDGYSNFHYYVMDYWGQGTSVTVSSGGGGSGGGGSGGGGSGGGGSDIVLTQSPASLAVSLGQRATISCRASESVEYYVTSLMQWYQQKPGQPPKLLISAASNVESGVPARFSGSGSGTDFSLNIHPVEEDDIAMYFCQQSRKVPWTFGGGTKLEIKSSSASTKGPSVFPLAPSSKSTSGGTAALGCLVKDYFPEPVTVSWNSGALTSGVHTFPAVLQSSGLYSLSSVVTVPSSSLGTQTYICNVNHKPSNTKVDKKVRTEPKSSDKTHTCPPCPSGAPELLGGPSVFLFPPKPKDTLMISRTPEVTCVVVDVSHEDPEVKFNWYVDGVEVHNAKTKPREEQYNSTYRVVSVLTVLHQDWLNGKEYKCKVSNKALPAPIEKTISKAKGQPREPQVYTLPPSRDELTKNQVSLTCLVKGFYPSDIAVEWESNGQPENNYKTTPPVLDSDGSFFLYSKLTVDKSRWQQGNVFSCSVMHEALHNHYTQKSLSLSPGKSRTVAAPSVFIFPPSDEQLKSGTASVVCLLNNFYPREAKVQWKVDNALQSGNSQESVTEQDSKDSTYSLSSTLTLSKADYEKHKVYACEVTHQGLSSPVTKSFNRGE chain 2: TVAAPSVFIFPPSDEQLKSGTASVVCLLNNFYPREAKVQWKVDNALQSGNSQESVTEQDSKDSTYSLSSTLTLSKADYEKHKVYACEVTHQGLSSPVTKSFNRGERTEPKSSDKTHTCPPCPSGAPELLGGPSVFLFPPKPKDTLMISRTPEVTCVVVDVSHEDPEVKFNWYVDGVEVHNAKTKPREEQYNSTYRVVSVLTVLHQDWLNGKEYKCKVSNKALPAPIEKTISKAKGQPREPQVYTLPPSRDELTKNQVSLTCLVKGFYPSDIAVEWESNGQPENNYKTTPPVLDSDGSFFLYSKLTVDKSRWQQGNVFSCSVMHEALHNHYTQKSLSLSPGKSRASTKGPSVFPLAPSSKSTSGGTAALGCLVKDYFPEPVTVSWNSGALTSGVHTFPAVLQSSGLYSLSSVVTVPSSSLGTQTYICNVNHKPSNTKVDKKV | binds | – | – | – | – | – | – | – | 43.7 | 134 | 149000 | 0.0065
2E12 single-chain variable fragment (scFv) (scFv, Any tag on the free scFv used in SPR is not described; also called 2E12 scFv) scFv: QVQLKESGPGSVAPSQSLSITCTVSGFSLTGYGVNWVRQPPGKGLEWLGMIWGDGSTDYNSALKSRLSITKDNSKSQVFLKMNSLQTDDTARYYCARDGYSNFHYYVMDYWGQGTSVTVSSGGGGSGGGGSGGGGSGGGGSDIVLTQSPASLAVSLGQRATISCRASESVEYYVTSLMQWYQQKPGQPPKLLISAASNVESGVPARFSGSGSGTDFSLNIHPVEEDDIAMYFCQQSRKVPWTFGGGTKLEIK | – | – | – | – | – | – | – | – | 9.69 | 39.6 | 348000 | 0.00338
Interceptor X0124 (X0112 + X0113) (other, Monovalent anti-CD28 polypeptide heterodimer; After protein A alone the preparation also holds X0113 homodimer; also called Heterodimer 1 (X0124); X00124) chain 1: QVQLKESGPGSVAPSQSLSITCTVSGFSLTGYGVNWVRQPPGKGLEWLGMIWGDGSTDYNSALKSRLSITKDNSKSQVFLKMNSLQTDDTARYYCARDGYSNFHYYVMDYWGQGTSVTVSSGGGGSGGGGSGGGGSGGGGSDIVLTQSPASLAVSLGQRATISCRASESVEYYVTSLMQWYQQKPGQPPKLLISAASNVESGVPARFSGSGSGTDFSLNIHPVEEDDIAMYFCQQSRKVPWTFGGGTKLEIKSSSASTKGPSVFPLAPSSKSTSGGTAALGCLVKDYFPEPVTVSWNSGALTSGVHTFPAVLQSSGLYSLSSVVTVPSSSLGTQTYICNVNHKPSNTKVDKKVRTEPKSSDKTHTCPPCPSGAPELLGGPSVFLFPPKPKDTLMISRTPEVTCVVVDVSHEDPEVKFNWYVDGVEVHNAKTKPREEQYNSTYRVVSVLTVLHQDWLNGKEYKCKVSNKALPAPIEKTISKAKGQPREPQVYTLPPSRDELTKNQVSLTCLVKGFYPSDIAVEWESNGQPENNYKTTPPVLDSDGSFFLYSKLTVDKSRWQQGNVFSCSVMHEALHNHYTQKSLSLSPGK chain 2: TVAAPSVFIFPPSDEQLKSGTASVVCLLNNFYPREAKVQWKVDNALQSGNSQESVTEQDSKDSTYSLSSTLTLSKADYEKHKVYACEVTHQGLSSPVTKSFNRGERTEPKSSDKTHTCPPCPSGAPELLGGPSVFLFPPKPKDTLMISRTPEVTCVVVDVSHEDPEVKFNWYVDGVEVHNAKTKPREEQYNSTYRVVSVLTVLHQDWLNGKEYKCKVSNKALPAPIEKTISKAKGQPREPQVYTLPPSRDELTKNQVSLTCLVKGFYPSDIAVEWESNGQPENNYKTTPPVLDSDGSFFLYSKLTVDKSRWQQGNVFSCSVMHEALHNHYTQKSLSLSPGK | – | – | – | – | – | – | – | – | 35.2 | 104 | 141000 | 0.00497
